Data as given in the supplement of paper PMC10126150.
± gives the standard deviation of the averaged measurements.

Each sequence was assayed on ATP (assay: switch fluorescence ratio, 500 uM ATP over buffer (Cy3 cluster intensity, sum of 5 cycles each) (fold (ratio)); higher = stronger signal-on switching upon ATP binding; sequences stand for … in TCGTCGGCAGCGTCAGATGTGTATAAGAGACAGTTTTTTTTTTTTTTTTTTTTTTTTT…TC). Details: aptamer strand: ATP DNA aptamer (quencher-CACCTGGGGGAGTATTGCGGAGGAAGG + anchor), 100 nM annealed; ATP concentration: 500 uM.
Outline: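 Five buffer/ATP imaging cycles were run on Cy3-labelled switching-strand clusters on a modified Illumina MiSeq flow-cell, with NaOH stripping and re-annealing between cycles. In each cycle, clusters annealed to 100 nM quencher-labelled ATP aptamer were imaged in selection buffer, then after 15 min with 500 uM ATP at 22 °C. Per cluster, the fluorescence ratio is summed target-cycle over summed buffer-cycle Cy3 intensity, averaged per switch-domain sequence. Only clusters within 100-1000 RFU were kept.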
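Also: ATP exposure 15 min at 22 °C before imaging.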

Sequence | switch fluorescence ratio
TATACGGAAG | 1.02 ± 0.046
TATAGACTTA | 0.994 ± 0.026
TATAGAGATG | 1.01 ± 0.036
TATAGCATCT | 1.047 ± 0.01
TATAGCCCGT | 1.02 ± 0.016
TATAGCGGGG | 1.02 ± 0.015
TATAGGCGCT | 0.994 ± 0.035
TATAGGCGGT | 1.12 ± 0.2
TATAGGGGTT | 1.02 ± 0.061
TATAGGTCAG | 0.985 ± 0.011
TATAGGTGCG | 0.9891 ± 0.0049
TATAGGTTT | 1.01 ± 0.02
TATAGTATTG | 0.9861 ± 0.0087
TATAGTGGCC | 0.998 ± 0.022
TATAGTGGCG | 1.02 ± 0.051
TATAGTTCGG | 1.01 ± 0.013
TATATAAAGA | 1.03 ± 0.035
TATATAAGAT | 1 ± 0.058
TATATAATTT | 0.987 ± 0.012
TATATACGGG | 1.05 ± 0.032
TATATAGGGA | 0.981 ± 0.026
TATATATCTC | 0.9917 ± 0.0089
TATATCAGTC | 1.02 ± 0.058
TATATCGGCT | 1.03 ± 0.023
TATATCTAAA | 0.973 ± 0.044

Sequence | switch fluorescence ratio
TATATGACTT | 1 ± 0.012
TATATGAGAT | 1.01 ± 0.017
TATATGGAAG | 0.984 ± 0.03
TATATGGGAT | 1.006 ± 0.0035
TATATGGGTA | 0.982 ± 0.057
TATATGTCGT | 0.99 ± 0.01
TATATGTTTT | 0.968 ± 0.013
TATATTACTG | 1.09 ± 0.12
TATATTCGCT | 0.988 ± 0.012
TATATTTAGC | 1 ± 0.033
TATATTTG | 0.9883 ± 0.0065
TATATTTGTC | 1.04 ± 0.032
TATCAAAAAT | 0.994 ± 0.013
TATCAACCTT | 1.25 ± 0.34
TATCACAGTT | 1.01 ± 0.035
TATCACTTTA | 1.088 ± 0.0043
TATCAGAGGA | 1.04 ± 0.013
TATCAGGTCC | 0.9982 ± 0.0069
TATCAGTTCG | 0.9961 ± 0.006
TATCATCGGT | 1 ± 0.047
TATCATGCCG | 0.967 ± 0.037
TATCATGTCG | 0.986 ± 0.031
TATCCAATCA | 0.9719 ± 0.0081
TATCCATGGA | 1.01 ± 0.026
TATCCCATAC | 1.49 ± 0.073

Sequence | switch fluorescence ratio
TATCCCGGTG | 1.82 ± 0.043
TATCCTGTTT | 1.04 ± 0.011
TATCGACGTT | 0.97 ± 0.038
TATCGCCGAA | 0.997 ± 0.037
TATCGCGTTC | 1.09 ± 0.078
TATCGGCAAT | 4.42 ± 0.76
TATCGGGGGA | 0.985 ± 0.061
TATCGGGGT | 0.989 ± 0.013
TATCGTAGGG | 1 ± 0.022
TATCGTCTAC | 1.015 ± 0.0033
TATCGTGAGT | 0.9822 ± 0.0071
TATCTCTACT | 1.03 ± 0.017
TATCTGTCAA | 1.11 ± 0.032
TATCTGTGCC | 0.96 ± 0.054
TATCTGTTTC | 1.01 ± 0.016
TATCTTTGCG | 0.965 ± 0.01
TATGAAAGGC | 0.991 ± 0.053
TATGAAAGTA | 0.999 ± 0.033
TATGAACCGT | 0.984 ± 0.052
TATGAAGTTG | 0.985 ± 0.015
TATGAATGGG | 1.01 ± 0.021
TATGAGCCTG | 0.968 ± 0.047
TATGAGGTAA | 1.02 ± 0.028
TATGAGGTTG | 1 ± 0.03
TATGAGTAAG | 0.978 ± 0.027

Sequence | switch fluorescence ratio
TATGATCACG | 0.995 ± 0.011
TATGATCAGG | 0.9933 ± 0.0025
TATGATGGGA | 0.9911 ± 0.0093
TATGATTGGG | 1.008 ± 0.0013
TATGCACGGA | 1.07 ± 0.09
TATGCCAGCG | 1.01 ± 0.025
TATGCGAGTC | 0.952 ± 0.036
TATGCGTCGA | 0.979 ± 0.013
TATGCGTTGG | 1.007 ± 0.0024
TATGCTAGC | 1.03 ± 0.091
TATGCTAGGG | 0.977 ± 0.036
TATGCTAGTA | 0.992 ± 0.025
TATGCTGAAT | 1 ± 0.015
TATGGAATGT | 0.998 ± 0.0062
TATGGAGGAG | 0.981 ± 0.017
TATGGAGGGA | 0.996 ± 0.021
TATGGAGTTT | 1.01 ± 0.013
TATGGATTGT | 1.01 ± 0.04
TATGGCCAAT | 1.03 ± 0.03
TATGGCGCAT | 0.993 ± 0.043
TATGGCTGTG | 1.02 ± 0.06
TATGGGAAGC | 1.03 ± 0.025
TATGGGCGTT | 1 ± 0.011
TATGGGGATG | 1 ± 0.024
TATGGGGGGA | 1.02 ± 0.046
